# Assay results taken from paper PMC8675929 (PLoS Pathogens, 2021).
# B1: L20 (antibody, V domains shown)
# VH: EVQLVESGGGLVQPGRSLRLSCAASGFTFDDYAMHWVRQAPGKGLEWVSGINWNSGSIGYADSVKGRFTISRDNARNSLYLQMNGLRAEDTAFYYCAKDLRAYYYGSGSPWGFHHWGQGTLVTVSS
# VL: QSALTQPPSASGSPGQSVTISCTGTSSDVGGYNYVSWYEQHPGKAPKLLIYEVSKRPSGVPDRFSGSKSGNTASLTVSGLQAEDEADYYCSSYAGSNNVVFGGGTKLTVL
# B2: L4 (antibody, V domains shown)
# VH: QLQLQESGPRLVKPSETLSLTCTVSGGSISRTSYYWDWIRQPPGKGLEWIGSIYYRGSTYHNPSLKSRVTISVDTSKNQFSLRLTSVTAADTAVYYCARPKNLGVVAATNWFDPWGQGTLVTVSS
# VL: QSVLTQPPSVSGAPGQRVTISCTGSSSNIGATYDVHWYQQLPGTAPKLLIYDNNNRPSGVPDRFSGSKSGTSASLAITGLQADDEADYYCQSYDSSLSGVVFGGGTKLTVL
# B3: L7 (antibody, V domains shown)
# VH: QLQLQESGPGLVKPSETLSLTCTVSGGSISSSNYYWDWIRQPPGKGLEWIGSINYSGSTYYNPSLKSRVTISVDTSKIQFSLKMSSVTAADTAVYYCARRRVDFWSGYNWFDPWGQGTLVTVSS
# VL: QPVLTQPPSASASMGASVTLTCTLSSGYSKYKVDWYQQRPGKGPRFVMRAGTGGIVGSKGDGIPDRFSVLGSGLNRYLTIKNIQEEDESDYHCGADHGSGSNFVYVFGTGTKVTIL
# B4: L15 (antibody, V domains shown)
# VH: EVQLVESGGVVVQPGGSLRLSCAASGFTFDDYTMHWVRQAPGKGLEWVSLISWDGGTTYYADSVKGRFTISRDNSKNSLYLRMNSLRTEDTALYYCAKGLVAQWLRGDYYYGLHVWGQGTTVTVSS
# VL: QSALTQPASVSGSPGQSITISCTGTSSDVGAYNSVSWYQQHPGKAPKLMIYDVTNRPSGVSNRFSGSKSGNTASLTISGLQAEDEADYYCSSYTITNTLVFGGGTKLTVL
# B5: 1710 (antibody, V domains shown)
# VH: EVQLQESGGGLVKPGGSLRLSCAASGFTFSSYSMNWVRQAPGKGLEWVSSITSSSSYIYYADSVKGRFTISRDNAKNSLYLQMNSLRAEDTAVYYCARDPGIAAADNHWFDPWGQGTLVTVSS
# VL: not shown
# Biological target: T1, 36mer repeat peptide (NANP)9 (Plasmodium falciparum repeat, synthetic …)
# T1 construct: printed as (NANP)9, 36mer; nine NANP tetrapeptides of the central repeat region of Plasmodium falciparum circumsporozoite protein; source: created by Genscript, as previously described [21,40]
# T1 chain: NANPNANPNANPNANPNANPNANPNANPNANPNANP
# Experiment: ELISA; antigen coated at 0.5 μg/mL in bicarbonate buffer overnight at 4°C; mAbs 5x10^-7–5.0 μg/mL, 2 hrs at 37°C; HRP-conjugated goat anti-human IgG; AUC of OD450
# Conditions: both partners purified
row,Binder,binding result
1,B1,no binding (tested: 5.0 μg/mL)
2,B2,no binding (tested: 5.0 μg/mL)
3,B3,no binding (tested: 5.0 μg/mL)
4,B4,no binding (tested: 5.0 μg/mL)

# Biological target: T2, full-length recombinant PfCSP (FL-rCSP) (Plasmodium falciparum 3D7 (clone of …, UniProt Q7K740))
# T2 construct: also called PfCSP_3D7
# Experiment: ELISA
# Conditions: both partners purified
row,Binder,binding result
1,B1,binds
2,B2,binds
3,B3,binds
4,B4,binds

# Biological target: T3, recombinant C-CSP construct (PfCSP_3D7 amino acids 295–374) (Plasmodium falciparum 3D7, UniProt Q7K740)
# T3 construct: also called C-terminal domain of PfCSP
# Experiment: ELISA
# Conditions: both partners purified
row,Binder,binding result
1,B1,binds
2,B2,binds
3,B3,binds
4,B4,binds
5,B5,binds

# Biological target: T4, N-CSP (N-terminus of PfCSP) (Plasmodium falciparum 3D7, UniProt Q7K740)
# T4 construct: source: created by Genscript, as previously described [21,40]
# Experiment: ELISA
# Conditions: both partners purified
row,Binder,binding result
1,B1,no binding (tested: 5.0 μg/mL)
2,B2,no binding (tested: 5.0 μg/mL)
3,B3,no binding (tested: 5.0 μg/mL)
4,B4,no binding (tested: 5.0 μg/mL)
5,B5,no binding (tested: 5.0 μg/mL)

# Biological target: full-length PfCSP on transgenic P. berghei sporozoites (Pb-PfCSP-GFP/Luc-SPZ) (Plasmodium falciparum, 3D7 (transgene …, UniProt Q7K740))
# Experiment: flow cytometry on cells; 20 μg/mL mAb on midgut (MG) Pb-PfCSP-SPZ; goat anti-human IgG-Alexa Fluor 647
# Conditions: one partner purified
row,Binder,binding result
1,B4,binds
